Data reported in article PMC3706390.

Columns and labels:
[1] = biological target: L30 Y89A (rat, UniProt P62890 1-115, Y89A); assay: EMSA; L30 at 50% WT binding; 30 mM Tris-HCl pH 8.0, 75 mM KCl, 5 mM MgCl2, 1 mM DTT, 0.04 ug/uL BSA, 10% glycerol, 50 ng/uL yeast tRNA, 30 C 15 min; EMSA gels 0.5X TBE at 4 C; RNase digesti
[2] = biological target: L30 K36A (rat, UniProt P62890 1-115, K36A); assay: EMSA; reduced by 60%; 30 mM Tris-HCl pH 8.0, 75 mM KCl, 5 mM MgCl2, 1 mM DTT, 0.04 ug/uL BSA, 10% glycerol, 50 ng/uL yeast tRNA, 30 C 15 min; EMSA gels 0.5X TBE at 4 C; RNase digesti
[3] = biological target: L30 L35A (rat, UniProt P62890 1-115, L35A); assay: EMSA; reduced by 14%, significant; 30 mM Tris-HCl pH 8.0, 75 mM KCl, 5 mM MgCl2, 1 mM DTT, 0.04 ug/uL BSA, 10% glycerol, 50 ng/uL yeast tRNA, 30 C 15 min; EMSA gels 0.5X TBE at 4 C; RNase digesti
[4] = biological target: L30 K87A (rat, UniProt P62890 1-115, K87A); assay: EMSA; little effect vs WT; 30 mM Tris-HCl pH 8.0, 75 mM KCl, 5 mM MgCl2, 1 mM DTT, 0.04 ug/uL BSA, 10% glycerol, 50 ng/uL yeast tRNA, 30 C 15 min; EMSA gels 0.5X TBE at 4 C; RNase digesti
[5] = biological target: L30 L29A (rat, UniProt P62890 1-115, L29A); assay: EMSA; comparable to WT; 30 mM Tris-HCl pH 8.0, 75 mM KCl, 5 mM MgCl2, 1 mM DTT, 0.04 ug/uL BSA, 10% glycerol, 50 ng/uL yeast tRNA, 30 C 15 min; EMSA gels 0.5X TBE at 4 C; RNase digesti
[6] = biological target: L30 V91A (rat, UniProt P62890 1-115, V91A); assay: as above
[7] = biological target: L30 M108A (rat, UniProt P62890 1-115, M108A); assay: as above
[8] = biological target: L30 E110A (rat, UniProt P62890 1-115, E110A); assay: as above

## GGGACCGGAGUGUCGCAAGACGCAGAGAUGGUCC (structured_RNA) [L30 RNA (stem-loop of L30 pre-mRNA)]
[1]
  binding signal: 37 % of WT binding
[2]
  binding signal: 40 % of WT binding
[3]
  binding signal: 86 % of WT binding
[4]
  binding result: binds
[5]
  binding result: binds
[6]
  binding result: binds
[7]
  binding result: binds
[8]
  binding result: binds
